The chains are these.
B1: BICD2-CC3 (aa 711–800), His6-tagged (domain or fragment, mouse, UniProt Q921C5-1 711-800, looked up)
chain: YENEKAMVTETMMKLRNELKALKEDAATFSSLRAMFATRCDEYITQLDEMQRQLAAAEDEKKTLNSLLRMAIQQKLALTQRLELLELDHE
notes: also called Ms BICD2-CC3; source: E. coli LOBSTR-BL21(DE3)-RIL, purified (Ni-NTA)
B2: BICD2-CC3 (residues 711–800), His6 tag removed (domain or fragment, mouse, UniProt Q921C5-1 711-800, looked up)
chain: B1 chain
B3: GST-tagged RanBP2 fragment (BICD2 binding domain, aa 2148–2240), on glutathione Sepharose (domain or fragment, human, UniProt P49792 2148-2240, looked up)
chain: DIPLQTPHKLVDTGRAAKLIQRAEEMKSGLKDFKTFLTNDQTKVTEEENKGSGTGAAGASDTTIKPNPENTGPTLEWDNYDLREDALDDSVSS
notes: GST fusion from the pGEX-6P-1 vector; also called GST-RanBP2; BBD; source: E. coli, purified on glutathione Sepharose, not eluted
B4: GST-His6-BICD2-CT (aa 630–820) wildtype, Q921C5-1 T699M (protein)
chain: IRDQIKHLQAAVDRTTELSRQRIASQELGPAVDKDKEALMEEILKLKSLLSTKREQITTLRTVLKANKQMAEVALANLKSKYENEKAMVTETMMKLRNELKALKEDAATFSSLRAMFATRCDEYITQLDEMQRQLAAAEDEKKTLNSLLRMAIQQKLALTQRLELLELDHEQTRRGRSKAASKAKPASPSL
B5: GST-His6-BICD2-CT (aa 630–820) wildtype, Q921C5-1 L679R (protein)
chain: B4 chain with L50R, M70T

Assay [1] has as its target GST-tagged Nesprin-2 fragment (N2G SR 52–56), on glutathione Sepharose (mouse) (UniProt Q6ZWQ0). Briefly: pull-down; GST-RanBP2 or GST-Nesprin-2 held on glutathione Sepharose (not eluted), purified His6-tagged BICD2 fragment added to the column, washed, eluted; Coomassie-stained SDS-PAGE, bands quantified (3 sets).
Assay [2] has as its target GST-His6-BICD2-CT (aa 630–820) E770G (mouse) (UniProt Q921C5). Briefly: pull-down; GST-His6-BICD2-CT WT or mutant on glutathione magnetic beads, incubated 3 hrs at 4°C with untransfected or GFP-Nesprin-2 expressing HeLaM lysate (RIPA buffer); immunoblot with anti-RanBP2, anti-GFP and anti-GST, signal ratio normalised to wildtype.
In assay [3] the target is Purified Nesprin-2 fragment (N2G SR 52–56), used in size exclusion chromatography (mouse) (UniProt Q6ZWQ0). Briefly: SEC; pairwise mixtures, Nesprin-2 or RanBP2 with BICD2-CC3 WT or mutant at 1:2; 1.3 mg Nesprin-2, 0.2 mg RanBP2, 0.4 mg BICD2-CC3; Superdex 200 Increase 10/300 GL; 20 mM HEPES pH 7.5, 150 mM NaCl, 0.5 mM TCEP; bands quantified (Fig 6C-6G, S3, S6). (In general: Size exclusion chromatography separates by hydrodynamic size, large species first.)

The target of assay [4] is B3. Briefly: pull-down; GST-RanBP2 or GST-Nesprin-2 held on glutathione Sepharose (not eluted), purified His6-tagged BICD2 fragment added to the column, washed, eluted; Coomassie-stained SDS-PAGE, bands quantified (3 sets). As to conditions: both partners purified.
Assay [5] addresses T1, RanBP2 fragment (aa 2148–2240), GST cleaved (human, UniProt P49792 2148-2240).
T1 construct: expressed as GST fusion from the pGEX-6P-1 vector; also called Hs RanBP2 (aa 2148–2240); BBD
Briefly: SEC; competition: Nesprin-2, RanBP2 and BICD2-CC3 WT or mutant mixed at 1:1:2 molar ratio; Superdex 200 Increase 10/300 GL; 20 mM HEPES pH 7.5, 150 mM NaCl, 0.5 mM TCEP (Fig 6L, 6M, S3I, S3J). As to conditions: both partners purified.

For assay [6], the target named is T1, RanBP2 fragment (aa 2148–2240), GST …. Briefly: SEC; pairwise mixtures, equimolar; Superdex 200 Increase 10/300 GL; 20 mM HEPES pH 7.5, 150 mM NaCl, 0.5 mM TCEP, 1 mM MgCl2; 1.3 mg Nesprin-2, 0.2 mg RanBP2, 0.2 mg BICD2-CC3; fractions on SDS-PAGE (Fig 2D, 2E). To be noted: both partners purified.
A further assay concerns the target T2, BICD2 aa 630–800 (mouse, UniProt Q921C5-1 630-800).
T2 construct: Bicd2 (Bicaudal D2), mouse, aa 630–800, contains the entire predicted CC3 domain; cloned into pet28a (NdeI, XhoI); also called Ms BICD2 aa 630–800
T2 sequence (looked up): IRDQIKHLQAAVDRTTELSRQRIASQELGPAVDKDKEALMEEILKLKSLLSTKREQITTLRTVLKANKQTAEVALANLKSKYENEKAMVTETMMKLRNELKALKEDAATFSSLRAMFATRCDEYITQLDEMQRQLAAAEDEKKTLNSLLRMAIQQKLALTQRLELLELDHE
Briefly: pull-down; GST-RanBP2 or GST-Nesprin-2 held on glutathione Sepharose (not eluted), purified His6-tagged BICD2 fragment added to the column, washed, eluted; Coomassie-stained SDS-PAGE, bands quantified (3 sets). As to conditions: both partners purified.

In assay [7] the target is GFP tagged Nesprin-2 fragment (GFP-N2G SR), Q6ZWQ0. In words: GST pull-down with immunoblot quantification. To be noted: chain shown with the change; GFP-Nesprin-2 expressing HeLaM cell lysate; n = 3; parent: est. 1.0; read off a plot. For orientation: A western blot detects proteins with antibodies after separation by electrophoresis.

Numbering of substitutions follows the chain as printed. Numbers in names are those of the source.

Regarding “BICD2 aa 750–800 (from UniProt Q921C5-1 750-800) (domain or fragment)”, in assay [1], the amount of bound molecules compared to the longer fragments (aa 630–800 and 711–800) stood at 73%.
As for “GFP tagged Nesprin-2 fragment (GFP-N2G SR) (from UniProt Q6ZWQ0 1-6874) (domain or fragment)”, in assay [2], the fold change in GFP-Nesprin-2 binding against wildtype BICD2-CT is 6 fold.
Take “BICD2-CC3 (aa 711–800), His6-tagged (from UniProt Q921C5-1 711-800) (domain or fragment)”: in assay [3], the percent of BICD2-CC3 that co-elutes with Nesprin-2 was determined as 23%.
For “BICD2-CC3 (aa 711–800) F739I/R743C (from UniProt Q921C5-1 711-800) (domain or fragment)”, in assay [3], the percent of BICD2-CC3 that co-elutes with Nesprin-2 is 94%.
Regarding B1, the binding result in assay [4] and in assay [5] was “binds” throughout.
On to B2, for which the binding result in assay [6] is reported as “binds”.
For the molecule B3, in the assay with BICD2 aa 630–800, the binding result was “binds”.
For B4, the ratio to parent in assay [7] turned out to be 0.53.
The same measure, in the same setting: the figure for B5 is 2.7.

These data come from PMC10022797, “Role of Nesprin-2 and RanBP2 in BICD2-associated brain developmental disorders” (PLOS Genetics, 2023).
